Results as given in article PMC9586334 (Proceedings of the National Academy of Sciences of the …, 2022).
Positions of bridges follow the written chain, without caps; N, C: chain ends. lipid anchor = not defined here

Biological target: T1, FhuA, outer membrane TonB-dependent transporter of E. coli (mature part, His10-TEV construct) (E. coli, UniProt P06971 34-747)
T1 construct: FhuA of E. coli, the mature part, amplified from E. coli genomic DNA; No TEV cleavage is told for the SEC and cryo-EM samples; also called wild-type FhuA; free FhuA; source: E. coli Bl21 (DE3) Δcyo, alone or co-overexpressed with Llp, purified (IMAC, SEC, in detergent)
T1 sequence (looked up): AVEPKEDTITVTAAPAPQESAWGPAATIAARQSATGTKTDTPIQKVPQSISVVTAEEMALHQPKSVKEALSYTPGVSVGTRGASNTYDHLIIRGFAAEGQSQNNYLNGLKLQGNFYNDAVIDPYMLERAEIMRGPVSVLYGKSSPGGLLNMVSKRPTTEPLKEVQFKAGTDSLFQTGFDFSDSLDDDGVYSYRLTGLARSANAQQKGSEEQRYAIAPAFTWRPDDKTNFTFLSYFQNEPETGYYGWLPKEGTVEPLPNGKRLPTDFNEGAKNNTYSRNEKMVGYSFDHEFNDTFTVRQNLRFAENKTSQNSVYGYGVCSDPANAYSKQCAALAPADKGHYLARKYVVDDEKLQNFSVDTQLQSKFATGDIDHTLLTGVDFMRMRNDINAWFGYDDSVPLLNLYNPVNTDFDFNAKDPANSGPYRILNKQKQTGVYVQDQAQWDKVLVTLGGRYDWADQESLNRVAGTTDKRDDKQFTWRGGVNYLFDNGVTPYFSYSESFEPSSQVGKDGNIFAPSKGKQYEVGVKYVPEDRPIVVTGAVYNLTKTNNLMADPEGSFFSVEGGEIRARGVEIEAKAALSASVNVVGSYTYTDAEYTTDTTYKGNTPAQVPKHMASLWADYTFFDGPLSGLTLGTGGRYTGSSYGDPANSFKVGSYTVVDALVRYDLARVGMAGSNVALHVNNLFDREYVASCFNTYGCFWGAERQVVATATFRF
Assay: SEC; complex assembled in vivo by co-overexpression in E. coli, purified by IMAC and then gel filtration (Superdex-200, 10 mM Hepes, 100 mM NaCl, 0.05% LDAO, pH 7.5); fractions on SDS-PAGE
Conditions: partners not purified

B1: Llp, superinfection exclusion lipoprotein of bacteriophage T5 (natural protein, UniProt Q38162 16-77, looked up)
chain: C(lipid anchor)STFGPKDIKCEAYYMQDHVKYKANVFDRKGDMFLVSPIMAYGSFWAPVSYFTEGNTCEGVF
modifications: disulfide 11-58; reading uncertain
notes: Llp of bacteriophage T5, codon-optimized synthetic gene in the arabinose-inducible vector pB22; Lipoprotein; also called lytic conversion protein; SE lipoprotein; source: E. coli Bl21 (DE3) Δcyo, alone or co-overexpressed with FhuA, purified from membranes (IMAC, SEC, in detergent)
binding result: binds
